From article PMC4760761

biological target: T1, CodY-6His (Listeria monocytogenes) (UniProt A0A0H3GGF1); test: EMSA; conditions: EMSA: 20 mM Tris-Cl pH 8, 50 mM KCl, 2 mM MgCl2, 0.5 mM EDTA, 1 mM DTT, 0.05% NP-40, 5% glycerol, 25 ug/ml salmon sperm DNA, 4 ng DIG-DNA, 15 min room …
T1 sequence: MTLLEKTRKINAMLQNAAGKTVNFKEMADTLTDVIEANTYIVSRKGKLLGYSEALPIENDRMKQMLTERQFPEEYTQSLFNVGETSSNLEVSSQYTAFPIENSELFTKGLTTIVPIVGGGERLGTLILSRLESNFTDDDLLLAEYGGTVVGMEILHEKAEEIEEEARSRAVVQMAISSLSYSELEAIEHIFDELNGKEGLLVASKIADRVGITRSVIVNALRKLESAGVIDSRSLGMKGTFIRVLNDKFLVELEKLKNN

Row | Substance | Kd [nM]
1 | TTAACAAATGTTAGAGAAAAATTAATTCTCCAAGTGATATTCTTAAAATAATTCATGAATATTTTTTCTTATATTAGCTAATTAAGAAGATAATTAACTGCTAATCCAATTTTTAACGGAATAAATTAGTGAAAATGAAGGCCGAATTTTCCTTGTTCTAAAAAGGTTGTATTAGCGTATCACGAGGAGGGAGTATAAGTGGGATTAAATAGATTTATGCGTGCGATGATGGTAGTTTTCATTACTGCCAACTGCATTACGATTAACCCCGACATAATATTTGCAGCGACAGATA (double strand) [actA (LMRG_02626) upstream probe] | 208
2 | ATTCGCTCAACTCCTTCAATATAACTTCAATAACAAGTATAGCAGTTTTATGAACAGGAACCAATTTATTACTATTTGAAATGATTATTTTTATTTAGAAATGTATTTTTAAGCATAATTATGAATAAATGAAAATAAAAAGGTTGATATCTAAAAGCATCGATGTTAATATAAATACAAATGTTTGTATATTTATGAATAGGGGATGTTTAAAATGGCGAAAGAAAAAATCGTATTAGCTTACTCAGGTGGGTTAGATACTTCTGTGGCAATTCAGTGGTTAGTAGAATCAGGTTATGAAGTTATTGCATGTT (double strand) [argG (LMRG_01241) upstream probe] | 70
3 | AAAAGTAACATTTATTTTTCAGAAAAAATTTTTTAATTTTTACCGCGATGGATTCATTCGCGGTTTTTTTGTATGTAATGCATTGGTATATAAGGCTTTATCTATAATGTTAGATTATCTAACATAAATTTGACAAAACATCTAACGTACATTATAATGCTACTATCATCAAAAAAATAATTATGTTTTGAGGGGGAATTGTCGTGAGCGAAAAGGAAATCCGGAGATCGATGCCGCTTTTTCCAATTGGGCCTGTGATGAAGCTAACTGATCTCACTGCTAGACAAATTCGCTACTATG (double strand) [glnR upstream probe] | 74
4 | TATAATTCTCCTTTAATAGTTTAATGTTGGTTAAACTAGCTGAAGGATTGAAGAGTTTATTTCACTCTTACTTTCTAAACAATCCTAAAGCCATTGTTAGAAAGTCGAGAGCAGTGCAATTTTGTTTGCATCTCTTTGATCACCACCTTGCCTTCATTATAAGCACTTCTGAATTGTTCGTCAATTCTCTTTTATGAATACTCTTCTAAAAACAGGGTAAACGAAAACTATTGGACATTAGAGAAAACATCCATGGGAGGAGAAAGTAAAATGAAAAAAGTAAAAGCAAGTGAAACACTCGTACAAACATTAAAAAATTGGGGTATCGACCACGTATATGGCTTGCCCGGCGATTCGATTGACACCGTAGTTGACGCTTTACGAAAAGAAC (double strand) [poxB (LMRG_00411) upstream probe] | 55
5 | GTTAATTGCCTCCATTAATATACATATTATAGTTACCATTTTACTATAAAAAAGAACAACTTGACAGAAAAAAAGTGATTAAAAACAGCTCCAGCACTTATTTCCGTGTATCAATACAGAGGTAAAAAGGCATGCCACTTAGGCAAAAGACGGCTATGCTCTTAAGAAATTTTTTTGCTGTTATACCCTACTATTTTGCTATTCTAACAGCAATTTCAAAAAAACACTTCATATTAAGGTCTGTTCGTGATAAAATGAACATAGTTGATAATGATTATCATGTTCATTACATAACATAAAAGGAGGCCTGCTAGCTTATGCAATTAAATGAAACTGCTGTCGGTGAAAAAGTTCGCATCTCAGAATTAAAAATTGAGAACGCTATGCTTAAACGTCGCTTACTTGCACTTGGTTGCGATGAAGGTTGTGATATTTGTATCAAACAAAAAGGACTATTTGGTG (double strand) [feoA (LMRG_01257) upstream probe] | 90
6 | GAAGAAGTGAAGACGTACCTCATTCTTTAGAGAGCATTTACTGGTGAGTAAACGTATTTAAAGAGTGGAGCGTTTTTATTTTTGAATGTTTTAATTTTATTAGTTAGGGTAAAATCGACAGTATACTTAAAATTAGATGGGGTGAAGTGATGAATATTAGTATAGAAATAAAAGAACGTGATACTGACCACATAGACATATTTGTTGCTGGGGAGATCGATGCTTATACAGCGCCAAAGGTAAAAGAAGCATTAGAAGTATATCAAGTTAAAGAGGG (double strand) [rsbV-sigB (LMRG_02317) upstream probe] | 152
7 | AACCGTCACTTGTGGCGGTTTTTTTGTGTTTTCATCTTTGTGAATTAATTTTGATTTCTTTTAAAATTGGTTATAACTCTCGCGAATTGGGGTAAAAGTAAAGAGGCAGATGAAGATACATTGTGAAAAATTGATATGATAGGACAAGTCGTTTGATTGACAGCGTTTTCTTGATATGATTAAATAGACTCAAGTTAATTAACATGTCAGGAGAAGAGATGACAATCGAAACGATGCAAGGGTACTAGTGTGCCTACGTTTTGATTGTCATTCTTTTTTTGAAGTTAATTGATAATCGGAATGTAAGGGGACTAGTAAGTGTTAAAATTCCGGTGCTACAAATAAGCAAGAAGAAGGAGTTGGAAAAGATGATTGACACAAGTTTAGCAACACAATTTCTAGGTGAAGTCATTGGTACGGCTATACTAATTATTTTAGGTGCTGGTGTCGTAGCAGGTGTTTCACTGAAAAGATCCAAAGCAGAGAATG (double strand) [glpF (LMRG_01431) upstream probe] | 114
8 | fliN (LMRG_02874) upstream probe | 26
9 | glnR upstream probe | 74
10 | ATTCAACCCTCTTTCAAAATTCTTTTTCCCAAGTGCTTTAAATGGTACACTAATTATACCATAAGCAACTATTTTTCTATTCATTATTTACAAAAACGCTTTAACGTGCTAATATGCTAATAAACTAAAATATCGTAAAGGAGCTAACCAGATGAACTTAAATAAGAACTTACCAACTGGAACACGTGATAAACTTTTTCGTGAAGCACGAGCTGCATACAAAATTGAGCAACAAGTGAATCATTATTTT (double strand) [hisZ (LMRG_00251) upstream probe] | 150
11 | CATTAAATCCTCCCTCTTCCCATTATTACCTTTCAATATCCTTAATGGACATTTAACATCTATATACAATACACCCATTTTTTTTAAAGTGCAAGAGTTTTTTACTAAAAATGGAAAAAAATTTAATGAATGCGTTTGCTGCGAATAGAACAACTATAAGCATTGTCTCAAAAATTTTTCCTGGCTAAGAAAAAAACTGGAATAATTTTCGAAAACAAACGTGCTAATCTTATACATGTTCCAACAAACAATTACTTAGGAGGTGCTTTTCTCGTGTTAACTGATGATGTTCCAAAAAAATCACATTTACCATTAATTAAGCATCATTCTAATTACTTATAGCTTCGTTTAGTTGTATTTTCGCAAACAAAAAATTGGGAGGTAACATACAATGTCTAAACAAGCAAAGTCTTTAACCTTATTCGGATTTTTCGCCATCACGGCTTCCATGGTTATGACCGTTTATGAATATCCAACATTTGCCACTTCCG (double strand) [gadC-gadG (LMRG_01480) upstream probe] | 25
12 | CTTCTATATCTACTCATTAAAACCTAAGCAAACGTTCTCATTAACTACATTTTAAAAAATTTCAGAAAAATTGGTTTTTATGCTTGAAAATATTCTCAACAATGTGTAAACTAACAACATAGGTAAGAAAAGTTGACCAAATTTCAGAAAAATTTACTTAACGCACACAAGCCAATGTTTTTCTTCTTTATAACATTGCATGTATTTGCGTCAGGTTTTCTACTTTTCCTTATAGTCAAAATATTTAAACAAGGAGCGATTATAGTATGGCACAAACATCCACTATCCAAAACGACACAAAGGCAGCCGAAGAATACGCAGCTCGAGTGTTTGAAACAATTAAACAACGGAATCCTGGCGAAACGGAATTCCACCAAGCAGTTGAAGAATTCTTAAACTCTGTTATCCCAGCCCTTGCAAAAGAACCTAAATACGAAGCAAATGGCATTTTAGAACAGTTAACAGAACCCGAACGCCTTATCAGTTTCCGAGTTCCATGGGTGGATGATTCTGGCA (double strand) [gdhA (LMRG_00242) upstream probe] | 57
